What was measured:
[1] = molecular target: hyper-galactosylated (G2 F) variant of the mAb; assay: native MS
[2] = molecular target: α-2,6-sialic acid variant (ST6) of the mAb; assay: native MS

fold change of binding affinity against G0 F [1]: 1.5 fold | fold change of binding affinity against ST3 [2]: 1.72 fold
Substance: recombinant Human Fc gamma RIIIa/CD16a (V176) protein (from UniProt P08637 17-208) (receptor)

From PMC7153833
